Measured values from US20260232732A1 (FUNDACI INSTITUT DE RECERCA CONTRA LA LEUC MIA JOSEP …, published 2026).
Blank lines part the entries; values can stand above or below the binder they belong to. Where no end group is shown, it is not given here. The star is where a group is joined. Biotin = O=C1N[C@H]2[C@H](CS[C@H]2CCCCC(=O)*)N1

Columns and labels:
[1] = biological target: T1, human CCR9 on cells (MOLT-4, SupT1) (human, UniProt P51686 1-369); assay: flow cytometry on 300.19 cells overexpressing human CCR9 against CCR9-negative 300.19 WT cells, detection with anti-mouse-IgG(H+L) A647 [Cont.) B]
T1 construct: whole, on cells; also called C-C chemokine receptor type 9; CDw199
T1 sequence (looked up): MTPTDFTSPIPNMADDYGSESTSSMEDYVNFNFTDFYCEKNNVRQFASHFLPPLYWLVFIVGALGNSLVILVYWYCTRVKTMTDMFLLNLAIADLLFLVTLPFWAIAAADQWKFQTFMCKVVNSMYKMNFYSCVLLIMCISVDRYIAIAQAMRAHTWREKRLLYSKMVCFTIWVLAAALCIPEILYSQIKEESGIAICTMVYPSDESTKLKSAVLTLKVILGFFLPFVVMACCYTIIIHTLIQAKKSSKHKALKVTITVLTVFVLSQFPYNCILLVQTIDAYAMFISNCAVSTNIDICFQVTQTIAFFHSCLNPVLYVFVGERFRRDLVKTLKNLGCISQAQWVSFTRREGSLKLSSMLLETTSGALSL

[2] = biological target: T2, Peptide 2, non-conjugated (GSESTSSMED-C) (human); assay: ELISA; Ab 0.01563 ug/mL; repII
T2 construct: With the extra C-terminal Cys
T2 peptide: GSESTSSMEDC
Protocol: (§1) In brief, plates with each non-conjugated peptide (50 μg/mL) or BSA-conjugated peptide (5 μg/mL) were coated in 0.58M carbonate-bicarbonate buffer pH9.5, 100 μL/well, at 4° C. […] After washing, wells were incubated with the 3, 3′,5,5′-Tetramethylbenzidine (TMB) HRP substrate and reactions were stopped with 2M HCl and OD450 was recorded.

[3] = biological target: T3, antigen peptide-BSA (immunisation peptide #1 MADDYGSESTSSMEDYVNFNF-C conjugated to BSA) (human, extra C-terminal Cys conjugated to BSA); assay: ELISA; Ab 0.01563 ug/mL; repII
T3 construct: also called Positive control antigen peptide-BSA; MADDY peptide
T3 peptide: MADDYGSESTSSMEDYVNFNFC
Protocol: as §1

[4] = biological target: T4, Peptide 1-BSA (MADDYGSEST-C conjugated to BSA) (human); assay: ELISA; Ab 0.01563 ug/mL; repII
T4 peptide: MADDYGSESTC(BSA)
Protocol: as §1

[5] = biological target: T5, Peptide 3, non-conjugated (SSMEDYVNFN-C) (human); assay: ELISA; Ab 0.01563 ug/mL; repII
T5 construct: With the extra C-terminal Cys
T5 peptide: SSMEDYVNFNC
Protocol: as §1

[6] = biological target: T6, Peptide 4-BSA (SMEDYVNFNF-C conjugated to BSA) (human); assay: ELISA; Ab 0.01563 ug/mL; repII
T6 peptide: SMEDYVNFNFC(BSA)
Protocol: as §1

[7] = biological target: T7, Peptide 1, non-conjugated (MADDYGSEST-C) (human); assay: ELISA; Ab 0.01563 ug/mL; repII
T7 construct: With the extra C-terminal Cys
T7 peptide: MADDYGSESTC
Protocol: as §1

[8] = biological target: T8, Peptide 2-BSA (GSESTSSMED-C conjugated to BSA) (human); assay: ELISA; Ab 0.01563 ug/mL; repII
T8 peptide: GSESTSSMEDC(BSA)
Protocol: as §1

[9] = biological target: T9, Peptide 4, non-conjugated (SMEDYVNFNF-C) (human); assay: ELISA; Ab 0.01563 ug/mL; repII
T9 construct: With the extra C-terminal Cys
T9 peptide: SMEDYVNFNFC
Protocol: as §1

[10] = biological target: T10, Peptide 3-BSA (SSMEDYVNFN-C conjugated to BSA) (human); assay: ELISA; Ab 0.01563 ug/mL; repII
T10 peptide: SSMEDYVNFNC(BSA)
Protocol: as §1

[11] = biological target: T11, BSA (negative control coating) (bovine, UniProt P02769 25-607); assay: ELISA; Ab 0.01563 ug/mL; repII
T11 construct: also called Negative control BSA
T11 sequence (P02769 25-607 limits assumed): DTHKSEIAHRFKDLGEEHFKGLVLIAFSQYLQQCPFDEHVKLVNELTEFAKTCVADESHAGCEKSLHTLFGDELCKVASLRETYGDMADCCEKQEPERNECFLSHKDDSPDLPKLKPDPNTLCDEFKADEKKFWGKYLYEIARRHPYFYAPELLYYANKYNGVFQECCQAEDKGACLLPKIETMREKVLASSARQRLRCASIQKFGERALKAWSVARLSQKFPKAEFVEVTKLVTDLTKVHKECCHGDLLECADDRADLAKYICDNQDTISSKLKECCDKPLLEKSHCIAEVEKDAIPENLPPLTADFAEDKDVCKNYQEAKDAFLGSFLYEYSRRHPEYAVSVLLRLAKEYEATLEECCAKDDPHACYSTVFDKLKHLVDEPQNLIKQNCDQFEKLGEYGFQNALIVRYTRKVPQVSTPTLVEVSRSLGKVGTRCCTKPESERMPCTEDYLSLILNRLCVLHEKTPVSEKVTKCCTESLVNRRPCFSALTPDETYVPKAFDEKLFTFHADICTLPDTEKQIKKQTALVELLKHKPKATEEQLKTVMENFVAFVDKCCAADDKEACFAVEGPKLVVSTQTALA
Protocol: as §1

[12] = biological target: T12, biotin-peptide SSMEDYVNFN (human); assay: ELISA biotin-peptide; scFv 2.5 ug/mL; repI
T12 peptide: Biotin-SSMEDYVNFN
Protocol: (§2) The peptides were synthesized naked or with a N-terminal Biotin modification with a purity of >98%. All four scFvs were verified by ELISA that can be detected with anti-His antibodies. ELISA was performed for scFv-peptide binding validation. Briefly, naked peptides were coated (50 μg/mL) in 0.58M carbonate-bicarbonate buffer pH9.5, 100 μL/well, 4° C. O/N. Then after blocking (3% BSA-PBS, 300 μL/well 37° C. 1.5 h) and washing (PBS+Tween-20 0.05% v/v (0.05% PBST), wells were incubated with each purified scFv antibody at concentration of 1 μg/mL in PBS at 37° C. 1 h. After washing (0.05% PBST), wells were incubated with secondary antibodies (goat anti-His IgG-HRP) in PBS, 37° C., 30 min. After washing, and incubation with TMB substrate, reactions were stopped with 2M HCl and reading was quantified at OD450.
(§3) ELISA with biotin-conjugated peptides (5 μg/mL) was performed very similar to described above with minor modifications.
(§4) A full curve ELISA was performed for each positive scFv/biotin-peptide pair in order to confirm previous results. Tables 15-17 show ELISA results of the dose-dependent full curve for each positive peptide with scFv “CCR9_HUM”, “Comp-2” and “Comp-3”, respectively.

[13] = biological target: T13, biotin-peptide MEDYVNFNFT (human); assay: ELISA biotin-peptide; scFv 2.5 ug/mL; repI
T13 peptide: Biotin-MEDYVNFNFT
Protocol: as §2, §3, §4

[14] = biological target: T14, biotin-peptide SMEDYVNFNF (human); assay: ELISA biotin-peptide; scFv 2.5 ug/mL; repI
T14 peptide: Biotin-SMEDYVNFNF
Protocol: as §2, §3, §4

[15] = biological target: T15, biotin-peptide TSSMEDYVNF (human); assay: ELISA biotin-peptide; scFv 2.5 ug/mL; repI
T15 peptide: Biotin-TSSMEDYVNF
Protocol: as §2, §3, §4

[16] = biological target: T12, biotin-peptide SSMEDYVNFN; assay: ELISA biotin-peptide; scFv 10 ug/mL; repII
Protocol: as §2, §3, §4

[17] = biological target: T14, biotin-peptide SMEDYVNFNF; assay: ELISA biotin-peptide; scFv 10 ug/mL; repII
Protocol: as §2, §3, §4

[18] = biological target: T12, biotin-peptide SSMEDYVNFN; assay: ELISA biotin-peptide; scFv 2.5 ug/mL; repII
Protocol: as §2, §3, §4

[19] = biological target: T13, biotin-peptide MEDYVNFNFT; assay: ELISA biotin-peptide; scFv 2.5 ug/mL; repII
Protocol: as §2, §3, §4

[20] = biological target: T14, biotin-peptide SMEDYVNFNF; assay: ELISA biotin-peptide; scFv 2.5 ug/mL; repII
Protocol: as §2, §3, §4

[21] = biological target: T15, biotin-peptide TSSMEDYVNF; assay: ELISA biotin-peptide; scFv 2.5 ug/mL; repII
Protocol: as §2, §3, §4

binding result [1]: binds | OD450 [2]: 0.01 OD | OD450 [3]: 1.21 OD | OD450 [4]: 0.01 OD | OD450 [5]: 1.4 OD | OD450 [6]: 1.03 OD | OD450 [7]: 0.01 OD | OD450 [8]: 0.01 OD | OD450 [9]: 0.46 OD | OD450 [10]: 1.34 OD | OD450 [11]: 0.01 OD
B1: anti-CCR9 antibody clone 115 (murine, from hybridoma #115) (antibody, V domains shown)
VH: QVQLKQSGPELVKPGTSVRVSCTASGYSFTDYIIYWVKQSHGRSLEWIGYIDPNNYNTRYSQKFKGKATLTVDKSSTSAFMHLNSLTSDDSAVYYCARDVYWGQGTTLTVSS
VL: DVVMTQTPLSLTVSLGDQASISCRSSQSLVHSNGKTYLQWYLQKPGQSPKLLIYKVSNRFSGVPDRFSGSGSGTDFTLKISRVEAEDLGVYFCAQSTHVWTFGGGTKLEIKR
notes: Mouse IgG1

OD450 [12]: 1.81 OD | OD450 [13]: 1.66 OD | OD450 [14]: 1.76 OD | OD450 [15]: 1.42 OD | OD450 [16]: 1.87 OD | OD450 [17]: 1.85 OD | OD450 [18]: 1.78 OD | OD450 [19]: 1.64 OD | OD450 [20]: 1.77 OD | OD450 [21]: 1.4 OD
B2: CCR9_HUM2 scFv (humanized anti-CCR9 scFv, SEQ ID NO: 17 with C-terminal 6xHis tag) (scFv)
scFv: QVQLVQSGAEVKKPGASVKVSCTASGYSFTDYIIYWVKQAHGQSLEWMGYIDPNNYNTRYSQKFQGKVTITVDKSSTSAYMELNSLTSDDTAVYYCARDVYWGQGTTVTVSSGGGGSGGGGSGGGGSGGGGSDVVMTQTPLSLSVTPGQPASISCRSSQSLVHSNGKTYLQWYLQKPGQSPKLLIYKVSNRFSGVPDRFSGSGSGTDFTLKISRVEAEDVGVYFCAQSTHVWTFGGGTKVEIKRAHHHHHH
